This note sets out measurements from PMC10322703 (Nature Microbiology, 2023).

Sequences and labels used below:
B1: SNV-42, human monoclonal antibody (IgG1) (antibody, V domains shown)
VH: EVQLVESGGGLVQPGGSLRLSCAASGFTFSTYEMNWVRQAPGKGLEWVSYIRSSGSTVYYADSVKGRFTISRDNAKNLLYLQMNSLRAGDTAVYYCARIPGGYTGYFDYWGQGALVTVSS
VL: QSVLTQPPSVSGAPGQRVTISCTGSSSNIGAGYYVHWYQQLPGTVPKLLIYGNNNRPSGVPDRFSGSKSGTSASLAITGLQTEDEADYYCQSYDSSLSGWVFGGGTKLTVL
B2: SNV-42^GR, germline-revertant form of SNV-42 (IgG1) (antibody, V domains shown)
VH: EVQLVESGGGLVQPGGSLRLSCAASGFTFSSYEMNWVRQAPGKGLEWVSYISSSGSTIYYADSVKGRFTISRDNAKNSLYLQMNSLRAEDTAVYYCARIPGGYSGYFDYWGQGTLVTVSS
VL: QSVLTQPPSVSGAPGQRVTISCTGSSSNIGAGYDVHWYQQLPGTAPKLLIYGNSNRPSGVPDRFSGSKSGTSASLAITGLQAEDEADYYCQSYDSSLSGWVFGGGTKLTVL
B3: SNV-42 Fab (Fab, V domains shown)
VH: EVQLVESGGGLVQPGGSLRLSCAASGFTFSTYEMNWVRQAPGKGLEWVSYIRSSGSTVYYADSVKGRFTISRDNAKNLLYLQMNSLRAGDTAVYYCARIPGGYTGYFDYWGQGALVTVSS
VL: QSVLTQPPSVSGAPGQRVTISCTGSSSNIGAGYYVHWYQQLPGTVPKLLIYGNNNRPSGVPDRFSGSKSGTSASLAITGLQTEDEADYYCQSYDSSLSGWVFGGGTKLTVL
B4: SNV-42 F(ab')2 (other)
chain 1: EVQLVESGGGLVQPGGSLRLSCAASGFTFSTYEMNWVRQAPGKGLEWVSYIRSSGSTVYYADSVKGRFTISRDNAKNLLYLQMNSLRAGDTAVYYCARIPGGYTGYFDYWGQGALVTVSS
chain 2: QSVLTQPPSVSGAPGQRVTISCTGSSSNIGAGYYVHWYQQLPGTVPKLLIYGNNNRPSGVPDRFSGSKSGTSASLAITGLQTEDEADYYCQSYDSSLSGWVFGGGTKLTVL

The test has as its target SNV Gn^H, recombinant histidine-tagged N-terminal ectodomain region (head domain) of Sin Nombre viru (Sin Nombre virus, UniProt Q89905). Nature of the test: BLI. The conditions noted are these: both partners purified.
Broadly, the Kd is the constant that tells how readily two partners part at equilibrium. The koff is the rate constant with which the complex falls apart. For orientation: kon means the rate constant with which the complex forms. On to B1, for which the Kd was < 0.001 nM, the koff was < 1e-07 s⁻¹ and the kon is 132000 M⁻¹ s⁻¹.
For B2 the same measures were 0.811 nM, 0.000454 s⁻¹ and 514000 M⁻¹ s⁻¹.
Consider B3, for which the koff is 0.00561 s⁻¹ and the association rate constant (kon) was 139000 M⁻¹ s⁻¹.
For the molecule B4, the Kd was < 0.001 nM, the koff was < 1e-07 s⁻¹ and the on-rate (kon) turned out to be 61400 M⁻¹ s⁻¹.
